According to patent US20130095092A1:

Molecular target: Mannose 6-phosphate receptor (M6P receptor) on human MPS IIIB (NaGlu deficient) fibroblasts (human), P11717
Test: cell-based or functional assay

Chain of Mannose 6-phosphate receptor (M6P receptor) on human MPS IIIB (NaGlu deficient) fibroblasts (human), P11717 (P11717 41-2491): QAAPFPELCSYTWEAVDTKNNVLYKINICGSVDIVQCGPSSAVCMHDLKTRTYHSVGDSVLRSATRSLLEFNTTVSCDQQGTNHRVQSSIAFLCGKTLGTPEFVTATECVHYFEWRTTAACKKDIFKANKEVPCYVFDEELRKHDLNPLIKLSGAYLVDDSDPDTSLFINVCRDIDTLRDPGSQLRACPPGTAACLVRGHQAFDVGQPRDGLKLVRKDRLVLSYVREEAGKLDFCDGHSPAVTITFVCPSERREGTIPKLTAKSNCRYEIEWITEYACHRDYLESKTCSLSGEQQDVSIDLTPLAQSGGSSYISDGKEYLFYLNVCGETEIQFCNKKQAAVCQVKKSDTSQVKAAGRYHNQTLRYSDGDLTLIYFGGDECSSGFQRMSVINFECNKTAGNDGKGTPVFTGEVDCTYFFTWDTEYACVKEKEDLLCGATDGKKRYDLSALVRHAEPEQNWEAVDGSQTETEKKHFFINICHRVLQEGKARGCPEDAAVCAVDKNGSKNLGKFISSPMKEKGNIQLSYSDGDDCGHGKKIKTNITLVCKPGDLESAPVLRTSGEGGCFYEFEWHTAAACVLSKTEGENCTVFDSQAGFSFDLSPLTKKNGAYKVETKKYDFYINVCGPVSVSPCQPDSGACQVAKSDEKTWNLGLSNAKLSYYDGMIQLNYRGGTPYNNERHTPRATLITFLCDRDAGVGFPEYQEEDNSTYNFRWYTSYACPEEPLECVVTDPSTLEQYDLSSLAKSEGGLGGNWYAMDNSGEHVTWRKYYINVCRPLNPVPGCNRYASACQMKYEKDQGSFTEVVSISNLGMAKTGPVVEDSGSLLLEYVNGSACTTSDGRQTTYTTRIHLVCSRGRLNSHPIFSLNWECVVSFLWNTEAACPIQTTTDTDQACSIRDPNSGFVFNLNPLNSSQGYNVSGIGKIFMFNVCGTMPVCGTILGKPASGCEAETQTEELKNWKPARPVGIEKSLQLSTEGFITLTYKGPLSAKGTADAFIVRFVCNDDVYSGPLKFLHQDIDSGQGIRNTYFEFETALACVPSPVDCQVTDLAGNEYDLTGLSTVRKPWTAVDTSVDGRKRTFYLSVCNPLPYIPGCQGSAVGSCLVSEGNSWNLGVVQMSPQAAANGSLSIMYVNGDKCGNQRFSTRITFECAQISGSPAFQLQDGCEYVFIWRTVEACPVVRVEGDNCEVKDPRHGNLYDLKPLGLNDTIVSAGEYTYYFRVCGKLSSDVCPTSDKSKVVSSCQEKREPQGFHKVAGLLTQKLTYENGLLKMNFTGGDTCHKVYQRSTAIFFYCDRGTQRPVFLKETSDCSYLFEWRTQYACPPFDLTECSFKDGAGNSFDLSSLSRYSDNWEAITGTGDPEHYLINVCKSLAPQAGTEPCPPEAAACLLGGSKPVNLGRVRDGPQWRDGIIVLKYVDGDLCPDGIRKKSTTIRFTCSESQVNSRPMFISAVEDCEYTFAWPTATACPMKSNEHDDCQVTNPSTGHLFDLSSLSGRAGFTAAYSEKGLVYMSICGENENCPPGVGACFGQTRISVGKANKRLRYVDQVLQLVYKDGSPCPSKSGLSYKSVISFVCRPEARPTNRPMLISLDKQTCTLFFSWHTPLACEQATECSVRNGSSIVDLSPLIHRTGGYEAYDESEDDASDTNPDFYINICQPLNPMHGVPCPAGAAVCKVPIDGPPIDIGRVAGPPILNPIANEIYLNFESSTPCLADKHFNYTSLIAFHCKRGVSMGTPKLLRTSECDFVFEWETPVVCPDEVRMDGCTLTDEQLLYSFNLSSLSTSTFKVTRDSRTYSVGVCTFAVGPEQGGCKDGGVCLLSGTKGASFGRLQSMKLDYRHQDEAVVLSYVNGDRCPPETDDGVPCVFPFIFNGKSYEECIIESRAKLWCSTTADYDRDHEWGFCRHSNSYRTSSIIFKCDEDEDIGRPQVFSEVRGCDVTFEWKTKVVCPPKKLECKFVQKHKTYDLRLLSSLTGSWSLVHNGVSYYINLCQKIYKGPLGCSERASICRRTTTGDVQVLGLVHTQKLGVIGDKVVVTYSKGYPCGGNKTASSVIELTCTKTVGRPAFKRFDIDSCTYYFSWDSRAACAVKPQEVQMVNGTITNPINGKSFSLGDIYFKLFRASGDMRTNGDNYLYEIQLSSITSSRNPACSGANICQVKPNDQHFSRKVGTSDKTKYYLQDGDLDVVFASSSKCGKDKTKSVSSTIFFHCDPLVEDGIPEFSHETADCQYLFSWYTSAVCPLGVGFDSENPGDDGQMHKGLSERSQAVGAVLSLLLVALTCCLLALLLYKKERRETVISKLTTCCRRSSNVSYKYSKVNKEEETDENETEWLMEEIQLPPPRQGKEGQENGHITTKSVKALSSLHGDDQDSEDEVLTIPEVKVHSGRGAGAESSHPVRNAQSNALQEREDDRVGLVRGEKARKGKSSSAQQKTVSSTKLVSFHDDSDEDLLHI

B1: recombinant human N-acetyl-alpha-D-glucosaminidase (rhNaGlu) produced from a transgenic avian (Gallus), P54802 24-743 (enzyme)
chain: DEAREAAAVRALVARLLGPGPAADFSVSVERALAAKPGLDTYSLGGGGAARVRVRGSTGVAAAAGLHRYLRDFCGCHVAWSGSQLRLPRPLPAVPGELTEATPNRYRYYQNVCTQSYSFVWWDWARWEREIDWMALNGINLALAWSGQEAIWQRVYLALGLTQAEINEFFTGPAFLAWGRMGNLHTWDGPLPPSWHIKQLYLQHRVLDQMRSFGMTPVLPAFAGHVPEAVTRVFPQVNVTKMGSWGHFNCSYSCSFLLAPEDPIFPIIGSLFLRELIKEFGTDHIYGADTFNEMQPPSSEPSYLAAATTAVYEAMTAVDTEAVWLLQGWLFQHQPQFWGPAQIRAVLGAVPRGRLLVLDLFAESQPVYTRTASFQGQPFIWCMLHNFGGNHGLFGALEAVNGGPEAARLFPNSTMVGTGMAPEGISQNEVVYSLMAELGWRKDPVPDLAAWVTSFAARRYGVSHPDAGAAWRLLLRSVYNCSGEACRGHNRSPLVRRPSLQMNTSIWYNRSDVFEAWRLLLTSAPSLATSPAFRYDLLDLTRQAVQELVSLYYEEARSAYLSKELASLLRAGGVLAYELLPALDEVLASDSRFLLGSWLEQARAAAVSEAEADFYEQNSRYQLTLWGPEGNILDYANKQLAGLVANYYTPRWRLFLEALVDSVAQGIPFQQHQFDKNVFQLEQAFVLSKQRYPSQPRGDTVDLAKKIFLKYYPRWVAGSW
modifications: here or on the partner: glycosylated; glycans carry mannose-6-phosphate (3.2 moles of M6P per mole of protein), glycosylation sites not stated
For B1, the M6P inhibition assay: concentration of free M6P monosaccharide that inhibits uptake of 30 µg/mL rhNaGlu into MPS IIIB fibroblasts (enzymatic activity) was over 0.03 mM, the M6P inhibition assay: inhibition of cellular uptake of 30 µg/mL rhNaGlu into MPS IIIB fibroblasts by 1 mM free M6P (% inhibition of uptake) was over 90 and the NaGlu activity in MPS IIIB fibroblasts after 24 h uptake of rhNaGlu, relative to wild-type fibroblasts (% of wild-type activity) was 50.
